In patent CN116963747A (UNIV TEXAS, dated 2023):
Blank lines part the entries; values can stand above or below the binder they belong to.

B3: HA-TRAF2 (other, human, UniProt Q12933 1-501, looked up)
chain: MAAASVTPPGSLELLQPGFSKTLLGTKLEAKYLCSACRNVLRRPFQAQCGHRYCSFCLASILSSGPQNCAACVHEGIYEEGISILESSSAFPDNAARREVESLPAVCPSDGCTWKGTLKEYESCHEGRCPLMLTECPACKGLVRLGEKERHLEHECPERSLSCRHCRAPCCGADVKAHHEVCPKFPLTCDGCGKKKIPREKFQDHVKTCGKCRVPCRFHAIGCLETVEGEKQQEHEVQWLREHLAMLLSSVLEAKPLLGDQSHAGSELLQRCESLEKKTATFENIVCVLNREVERVAMTAEACSRQHRLDQDKIEALSSKVQQLERSIGLKDLAMADLEQKVLEMEASTYDGVFIWKISDFARKRQEAVAGRIPAIFSPAFYTSRYGYKMCLRIYLNGDGTGRGTHLSLFFVVMKGPNDALLRWPFNQKVTLMLLDQNNREHVIDAFRPDVTSSSFQRPVNDMNIASGCPLFCPVSKMEAKNSYVRDDAIFIKAIVDLTGL
notes: also called 外源HA-TRAF2; not shown: HA tag

Tests used:
HA-TRAF2 = target: B3; assay: co-IP in 293T cells with or without FLAG-A20N (Fig 6j)
FLAG-cFLIP = FLAG-cFLIP (human, UniProt O15519 1-480); assay: co-IP in 293T cells
Chain of FLAG-cFLIP (O15519 whole entry): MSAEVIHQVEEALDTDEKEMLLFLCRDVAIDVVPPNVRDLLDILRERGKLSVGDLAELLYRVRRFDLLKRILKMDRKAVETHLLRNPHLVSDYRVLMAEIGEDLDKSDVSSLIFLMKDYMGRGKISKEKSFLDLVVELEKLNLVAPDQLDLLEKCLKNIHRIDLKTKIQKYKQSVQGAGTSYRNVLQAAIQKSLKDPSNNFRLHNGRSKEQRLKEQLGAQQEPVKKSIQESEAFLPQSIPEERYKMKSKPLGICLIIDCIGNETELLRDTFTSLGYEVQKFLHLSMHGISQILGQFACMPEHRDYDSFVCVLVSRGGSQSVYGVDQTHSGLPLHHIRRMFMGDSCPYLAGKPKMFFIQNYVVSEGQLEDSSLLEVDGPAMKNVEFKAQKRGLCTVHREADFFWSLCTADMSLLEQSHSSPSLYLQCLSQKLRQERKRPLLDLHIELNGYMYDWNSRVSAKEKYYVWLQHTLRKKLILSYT

[1] = target: T1, LILRB3-hFc (全长LILRB3, C末端hFc标签) (human, UniProt O75022 24-631); assay: co-IP of endogenous TRAF2 with LILRB3-hFc in THP-1 cells, with LPS or PBS
T1 construct: whole, on cells; also called hFc加标签的B3-FL; not shown: human Fc (hFc) fused at the C-terminus in the pFLAG-CMV5.1 vector

[2] = target: T2, LILRB3 (白细胞免疫球蛋白样受体亚家族B成员3), full length (human, UniProt O75022 24-631); assay: co-IP from primary M5 AML cells with human anti-LILRB3 antibody
T2 construct: whole, on cells; also called B3-FL; 全长LILRB3

[3] = target: T1, LILRB3-hFc (全长LILRB3, C末端hFc标签); assay: co-IP of HA-TRAF2 with hFc-fused LILRBs in 293T cells
LILRB3 QEE509-511AAA突变体 = target: T3, LILRB3 QEE509-511AAA突变体 (human, UniProt O75022 24-631); assay: co-IP in 293T cells
T3 construct: It is probably hFc-fused like the other LILRB3 constructs; also called B3AAA

氨基酸505-515缺失的LILRB3 = 氨基酸505-515缺失的LILRB3 (human, UniProt O75022 24-631); assay: co-IP in 293T cells
[4] = target: T1, LILRB3-hFc (全长LILRB3, C末端hFc标签); assay: co-IP in THP-1 cells stably expressing LILRB3-hFc

binding result (HA-TRAF2): binds
binding result (FLAG-cFLIP): no binding
B1: B3ICDhFc (LILRB3胞内结构域, C末端与hFc融合) (Fc fusion, human, UniProt O75022 465-631, looked up)
chain: RRQRHSKHRTSDQRKTDFQRPAGAAETEPKDRGLLRRSSPAADVQEENLYAAVKDTQSEDRVELDSQSPHDEDPQAVTYAPVKHSSPRREMASPPSSLSGEFLDTKDRQVEEDRQMDTEAAASEASQDVTYAQLHSLTLRRKATEPPPSQEGEPPAEPSIYATLAIH
notes: domain: 胞内结构域; Purified for the in vitro pull-down with GST-TRAF2; not shown: human Fc (hFc) fused at the C-terminus

binding result [1]: binds
binding result [2]: binds
B2: TRAF2 (other, human, UniProt Q12933 2-501, looked up)
chain: AAASVTPPGSLELLQPGFSKTLLGTKLEAKYLCSACRNVLRRPFQAQCGHRYCSFCLASILSSGPQNCAACVHEGIYEEGISILESSSAFPDNAARREVESLPAVCPSDGCTWKGTLKEYESCHEGRCPLMLTECPACKGLVRLGEKERHLEHECPERSLSCRHCRAPCCGADVKAHHEVCPKFPLTCDGCGKKKIPREKFQDHVKTCGKCRVPCRFHAIGCLETVEGEKQQEHEVQWLREHLAMLLSSVLEAKPLLGDQSHAGSELLQRCESLEKKTATFENIVCVLNREVERVAMTAEACSRQHRLDQDKIEALSSKVQQLERSIGLKDLAMADLEQKVLEMEASTYDGVFIWKISDFARKRQEAVAGRIPAIFSPAFYTSRYGYKMCLRIYLNGDGTGRGTHLSLFFVVMKGPNDALLRWPFNQKVTLMLLDQNNREHVIDAFRPDVTSSSFQRPVNDMNIASGCPLFCPVSKMEAKNSYVRDDAIFIKAIVDLTGL
notes: also called 内源TRAF2

Binder: B3
binding result [3]: binds
binding result (LILRB3 QEE509-511AAA突变体): no binding
binding result (氨基酸505-515缺失的LILRB3): no binding

binding result [4]: binds
B4: SHP-1 (enzyme)
chain: not shown
notes: also called 内源性SHP-1; 外源SHP-1
